Laboratory results taken from article PMC3411732, “Binding of the Heterogeneous Ribonucleoprotein K (hnRNP K) to the Epstein-Barr Virus Nuclear Antigen 2 (EBNA2) Enhances Viral LMP2A Expression” (PLoS ONE, 2012).

Target: T1, EBNA2-wt, transiently expressed in HEK 293-T cells (Epstein-Barr virus, UniProt P12978 1-487, arginines of the RG-repeat (aa 339–354) symmetrically or asymmetrically di-methylated (SDMA or ADMA))
T1 sequence (looked up): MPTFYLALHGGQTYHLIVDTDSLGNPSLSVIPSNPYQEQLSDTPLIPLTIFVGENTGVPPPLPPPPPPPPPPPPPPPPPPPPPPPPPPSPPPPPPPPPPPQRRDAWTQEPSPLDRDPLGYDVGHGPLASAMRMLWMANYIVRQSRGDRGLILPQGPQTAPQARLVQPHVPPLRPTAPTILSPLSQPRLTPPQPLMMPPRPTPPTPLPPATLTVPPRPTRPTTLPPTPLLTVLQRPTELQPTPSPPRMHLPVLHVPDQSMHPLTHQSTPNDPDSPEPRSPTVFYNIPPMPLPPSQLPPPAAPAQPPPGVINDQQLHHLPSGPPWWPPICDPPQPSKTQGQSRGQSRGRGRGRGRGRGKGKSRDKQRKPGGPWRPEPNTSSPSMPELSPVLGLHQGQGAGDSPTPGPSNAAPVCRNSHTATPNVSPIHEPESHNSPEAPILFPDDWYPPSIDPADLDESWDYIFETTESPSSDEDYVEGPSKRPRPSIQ
Experiment: cell-based or functional assay

B1: GFP-hnRNP K (wild type), expressed in 293T cells (natural protein)
chain: not shown
  LMP2A promoter luciferase reporter in DG75 cells; co-expression of hnRNP K-wt (pSG5-HA-hnRNP K) with EBNA2-wt (pSG5-EBNA2): ≤ 3 fold
